Data on 23 molecules can be found in US20180334702A1.

No end group written: not given here. *: point of attachment. aminohexane = linker joining biotin to the N-terminal residue; Biotin = O=C1N[C@H]2[C@H](CS[C@H]2CCCCC(=O)*)N1

This assay has as its target CDK4/6. Nature of the assay: cell-based or functional assay. The settings on record: scale: relative value.
As for {Biotin-aminohexane}-GMPWSPNPWWRAGGG [Polypeptide 12], the CDK4/6 Reactivity stood at 6. With {Biotin-aminohexane}-GMPWSFNPWWRGGGG [Polypeptide 16] the figure was 2. With {Biotin-aminohexane}-GMYWSPNPWWRGGGG [Polypeptide E] the figure was 6; with {Biotin-aminohexane}-GMAWSPNPWWRGGGG [Polypeptide 4], 5. With {Biotin-aminohexane}-GMPYSPNPWWRGGGG [Polypeptide 14] the figure was 5; with {Biotin-aminohexane}-GMPWSPNPWWAGGGG [Polypeptide 11], 3. The molecule {Biotin-aminohexane}-GMWWSPNPWWRGGGG [Polypeptide C] registered a CDK4/6 Reactivity of 5. Next, {Biotin-aminohexane}-GMPFSPNPWWRGGGG [Polypeptide 13]: 5; {Biotin-aminohexane}-GMFWSPNPWWRGGGG [Polypeptide D]: 5. {Biotin-aminohexane}-GMPASPNPWWRGGGG [Polypeptide 5] returned a CDK4/6 Reactivity of 1. Next, {Biotin-aminohexane}-AMPWSPAPAARAGGG [Polypeptide F]: 7; {Biotin-aminohexane}-GMPWSPAPWWRGGGG [Polypeptide 7]: 8; {Biotin-aminohexane}-GMPWSPNPWARGGGG [Polypeptide 10]: 15. With {Biotin-aminohexane}-GAPWSPNPWWRGGGG [Polypeptide 3] the figure was 33; with {Biotin-aminohexane}-GMPWSWNPWWRGGGG [Polypeptide 15], 2.

The molecule {Biotin-aminohexane}-GMPWSYNPWWRGGGG [Polypeptide 17] registered a CDK4/6 Reactivity of 2. Next, {Biotin-aminohexane}-GMPWSPNPWWKGGGG [Polypeptide B]: 5.

{Biotin-aminohexane}-AMPWSPNPWWRGGGG [Polypeptide 2] registered a CDK4/6 Reactivity of 15. Next, {Biotin-aminohexane}-GMPWSPNPWWHGGGG [Polypeptide A]: 7; {Biotin-aminohexane}-GMPWSPNPWWRGGGG [Polypeptide 1]: 13; {Biotin-aminohexane}-GMPWSPNAWWRGGGG [Polypeptide 8]: 7. Consider {Biotin-aminohexane}-GMPWSANPWWRGGGG [Polypeptide 6], for which the CDK4/6 Reactivity was determined as 1.

Turning to {Biotin-aminohexane}-GMPWSPNPAWRGGGG [Polypeptide 9], the CDK4/6 Reactivity came out at 7.
